Target: Recombinant SARS-CoV-2 spike protein (SARS-CoV-2) (UniProt P0DTC2)
Assay: ELISA

Native human surfactant protein A (from UniProt Q8IWL2 21-248) (natural protein)
percent decrease of binding in 10 mM EDTA: 46%
